Here are results for nine molecules from patent publication US20260062456A1.

Where a chain is given by its changes, count along the chain named. Names and notes keep the numbering of the source.

Assay [1] has as its target TIGIT/CD112R/PD1 (Jurkat/PD-1/TIGIT cells carrying PD-1, TIGIT and endogenous CD112R). Description: flow cytometry, Jurkat/PD-1/TIGIT cells. Background: Flow cytometry measures light scatter and fluorescence of single cells or particles in a stream.
The target of assay [2] is human PD-1 and human TIGIT both stably expressed on Jurkat cells (Jurkat/PD-1/TIGIT cells). Description: flow cytometry, Jurkat/PD-1/TIGIT cells, 20 nM.
Another assay addresses PD-1 (human) (UniProt Q15116). Description: cell-based or functional assay.
Assay [3] deals with human PD-1 stably expressed on Jurkat/IL-2 reporter cells (Jurkat/PD-1 cells) (human) (UniProt Q15116). Description: flow cytometry, Jurkat/PD-1 cells.
human PD-1 stably expressed on Jurkat/IL-2 reporter cells (Jurkat/PD-1 cells) (human), sequence (Q15116 25-288 limits assumed): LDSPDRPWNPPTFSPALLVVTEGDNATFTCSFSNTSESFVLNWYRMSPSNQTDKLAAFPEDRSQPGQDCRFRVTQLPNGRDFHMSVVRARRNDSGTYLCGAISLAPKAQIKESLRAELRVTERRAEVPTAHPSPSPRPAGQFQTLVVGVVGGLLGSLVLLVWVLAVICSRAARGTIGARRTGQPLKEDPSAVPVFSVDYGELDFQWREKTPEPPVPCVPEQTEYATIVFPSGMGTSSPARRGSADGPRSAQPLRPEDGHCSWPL
Assay [4] has the same target. Description: flow cytometry, Jurkat/PD-1 cells, MFI vs wildtype PD-L1 IgV-Fc.

PD-1 (human), sequence (Q15116 25-288): as the sequence (Q15116 25-288 limits assumed) above

B1: non-stack variant CD155 IgV-Fc control (P18S/S65W/S67A/L104Q/G111R) (Fc fusion)
chain: WPPPGTGDVVVQAPTQVSGFLGDSVTLPCYLQVPNMEVTHVSQLTWARHGESGSMAVFHQTQGPWYAESKRLEFVAARLGAELRNASLRMFGLRVEDEGNYTCQFVTFPQRSRSVDIWLRVLAAAEPKSSDKTHTCPPCPAPELLGGPSVFLFPPKPKDTLMISRTPEVTCVVVDVSHEDPEVKFNWYVDGVEVHNAKTKPCEEQYGSTYRCVSVLTVLHQDWLNGKEYKCKVSNKALPAPIEKTISKAKGQPREPQVYTLPPSREEMTKNQVSLTCLVKGFYPSDIAVEWESNGQPENNYKTTPPVLDSDGSFFLYSKLTVDKSRWQQGNVFSCSVMHEALHNHYTQKSLSLSPGK
B1: the MFI at 33.3nM in assay [1] is 961 MFI. In assay [2], this molecule showed an MFI at 20 nM of 7910 MFI.

B2: variant PD-L1 IgV-Fc P6S, N45T, N78I, I83T (Fc fusion)
chain: FTVTVSKDLYVVEYGSNMTIECKFPVEKQLDLAALIVYWEMEDKTIIQFVHGEEDLKVQHSSYRQRARLLKDQLSLGIAALQTTDVKLQDAGVYRCMISYGGADYKRITVKVNAAAAEPKSSDKTHTCPPCPAPELLGGPSVFLFPPKPKDTLMISRTPEVTCVVVDVSHEDPEVKFNWYVDGVEVHNAKTKPCEEQYGSTYRCVSVLTVLHQDWLNGKEYKCKVSNKALPAPIEKTISKAKGQPREPQVYTLPPSREEMTKNQVSLTCLVKGFYPSDIAVEWESNGQPENNYKTTPPVLDSDGSFFLYSKLTVDKSRWQQGNVFSCSVMHEALHNHYTQKSLSLSPGK
For B2, in the assay with PD-1 (human), the Average Relative Luminescence Units was found to be 2250 RLU and the Fold increase in IL2 reporter signal was 1.01 fold.

B3: variant PD-L1 IgV-Fc A33D, S75P, D104G (Fc fusion)
chain: B2 chain with S6P, A33D, T45N, S75P, I78N, T83I, D104G
For the molecule B3, in the assay with PD-1 (human), the Average Relative Luminescence Units was 2170 RLU and the Fold increase in IL2 reporter signal was 0.97 fold.

B4: variant PD-L1 IgV-Fc A33D, V50A (Fc fusion)
chain: B2 chain with S6P, A33D, T45N, V50A, I78N, T83I
In the assay with PD-1 (human), B4 displayed an Average Relative Luminescence Units of 2250 RLU and a Fold increase in IL2 reporter signal of 1.01 fold.

B5: variant PD-L1 IgV-Fc S75P, K106R (Fc fusion)
chain: B2 chain with S6P, T45N, S75P, I78N, T83I, K106R
In the assay with PD-1 (human), B5 showed an Average Relative Luminescence Units of 2130 RLU and a Fold increase in IL2 reporter signal of 0.95 fold.

B6: variant PD-L1 IgV-Fc A33D, N45T, N78I (Fc fusion)
chain: B2 chain with S6P, A33D, T83I
With B6, in the assay with PD-1 (human), the Average Relative Luminescence Units turned out to be 1970 RLU and the Fold increase in IL2 reporter signal is 0.89 fold.

B7: variant PD-L1 IgV-Fc A33D, S75P (SEQ ID NO 285) (Fc fusion)
chain: B2 chain with S6P, A33D, T45N, S75P, I78N, T83I, M97V
For B7, in the assay with PD-1 (human), the Average Relative Luminescence Units was determined as 2170 RLU and the Fold increase in IL2 reporter signal was determined as 0.97 fold.

B8: variant PD-L1 IgV-Fc A33D/S75P (IgV SEQ ID NO 285) (Fc fusion)
chain: B2 chain with S6P, A33D, T45N, S75P, I78N, T83I, M97V
B8: the MFI at 50 nM in assay [3] is 306 MFI. In assay [4], this molecule gave a Fold increase over wildtype PD-L1 IgV-Fc of 0.1 fold.

B9: variant PD-L1 IgV-Fc I20L, N45T, V110M (Fc fusion)
chain: B2 chain with S6P, I20L, I78N, T83I, V110M
In the assay with PD-1 (human), B9 had an Average Relative Luminescence Units of 2210 RLU and a Fold increase in IL2 reporter signal of 0.99 fold.
